Data taken from patent publication US6323395A, “Nucleotide sequences of maize and soybean β-Ketoacyl-Acyl Carrier Protein Synthase II and their use in the regulation of fatty acid content of oil” (Dow AgroSciences LLC, priority 1998, dated 2001).
Read-outs that look alike come from different tables or passages of the source.

Legend:
[1] = target: C16:0-ACP (palmitoyl-acyl carrier protein) made from bought ACP (Escherichia coli (strain K12)) (UniProt P0A6A8)
[2] = tested on: soybean β-Ketoacyl-Acyl Carrier Protein Synthase II (KAS II), purified from seed; experiment: KAS II activity assay, Km from double reciprocal plots; assay type: biochemical; conditions: cerulenin-Sepharose fraction, substrate not named, condensing activity towards C16:0-ACP
Procedure: (§1) Malonyl CoA-ACP transacylase, hereafter MTA, was purified from E. coli as described by Alberts et al. (1969) Methods in Enzymology, 14:50-53. Transacylase reactions were performed in 100 μL of reaction mixture [100 mM KH2 PO4, pH 6.5, 100 μM ACP, 100 μM malonyl CoA, 10 nCi [2-^4 C] malonyl CoA (43.1 Ci/mol), and 2 mM dithiothreitol (DTT). ACP was incubated with an equal volume of 20 mM DTT for 15 min before being added to the reaction mixture. Reactions were started by adding 10 μL of either enzyme alone or enzyme that had been incubated for 15 min with an inhibitor and allowed to proceed for 5 min at 23° C. Reactions, which were terminated by adding 400 μL of ice cold 5% (v/v) perchloric acid, were then placed on ice for 20 min before being centrifuged for 5 min at 14,000×g. Pellets were washed 3× with 5% perchloric acid before being resuspended in 500 µL KH2 PO4 buffer and counted using scintillation. KAS II activity was measured by modifying the method of Garwin et al. (1980) J. Biological Chem. 255:11949-11956. […] The toluene layer (300 μL) was added to 5 mL Aquasol (NEN, Boston, Mass.) and incorporated [2-^4 ] malonyl CoA was determined by scintillation counting. […]

[3] = tested on: maize β-Ketoacyl-Acyl Carrier Protein Synthase II (KAS II), purified from seed; experiment: as above; assay type: biochemical; conditions: cerulenin-Sepharose fraction, substrate not named, condensing activity towards C16:0-ACP
Procedure: as §1

KAS I = experiment: Synthase assay with cerulenin, condensation of [2-14C]malonyl-CoA with acyl-ACP; assay type: biochemical; conditions: cerulenin at concentrations of 5 μM or greater
[4] = tested on: KAS II (soybean and maize KAS II expressed in E. coli); experiment: as above; assay type: biochemical; conditions: cerulenin 50 μM
Procedure: Malonyl CoA-ACP transacylase, hereafter MTA, was purified from E. coli as described by Alberts et al. (1969) Methods in Enzymology, 14:50-53. Transacylase reactions were performed in 100 μL of reaction mixture [100 mM KH2 PO4, pH 6.5, 100 μM ACP, 100 μM malonyl CoA, 10 nCi [2-^4 C] malonyl CoA (43.1 Ci/mol), and 2 mM dithiothreitol (DTT). ACP was incubated with an equal volume of 20 mM DTT for 15 min before being added to the reaction mixture. Reactions were started by adding 10 μL of either enzyme alone or enzyme that had been incubated for 15 min with an inhibitor and allowed to proceed for 5 min at 23° C. […] Pellets were washed 3× with 5% perchloric acid before being resuspended in 500 µL KH2 PO4 buffer and counted using scintillation. KAS II activity was measured by modifying the method of Garwin et al. (1980) J. Biological Chem. 255:11949-11956. […] The toluene layer (300 μL) was added to 5 mL Aquasol (NEN, Boston, Mass.) and incorporated [2-^4 ] malonyl CoA was determined by scintillation counting.
For enzymatic analysis of E coli expressed soybean and maize KAS II, substrates were made as follows: ACP (Sigma Chemical Co.) was further purified by three cycles of precipitation at pH 4.0 using 10% (v/v) acetic acid followed by resolubilization in 50 mM Tris-HCl, pH 8.0. […] Incorporated malonyl-CoA was extracted into toluene prior to quantitating by liquid scintillation counting. […]

[5] = target: C16:0-ACP (palmitoyl-acyl carrier protein) made from bought ACP (Escherichia coli (strain K12)) (UniProt P0A6A8); remark: listed apart in the source
Target sequence in this assay (P0A6A8 2-78 limits assumed): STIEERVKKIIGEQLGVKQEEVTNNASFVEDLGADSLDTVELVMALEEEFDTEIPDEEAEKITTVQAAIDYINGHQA

[6] = target: C10:0-ACP (decanoic acid acyl-acyl carrier protein) made from bought ACP (Escherichia coli (strain K12)) (UniProt P0A6A8)
C10:0-ACP (decanoic acid acyl-acyl carrier protein) made from bought ACP (Escherichia coli (strain K12)), sequence (P0A6A8 2-78 limits assumed): as above

[7] = target: the molecule itself; experiment: gel filtration on Superdex 200: native molecular weight 82,000±5,000 against a subunit size of 46 kDa by SDS-PAGE
Procedure: The molecular mass of native KAS II was determined by gel filtration using a Superdex 200 column (Pharmacia LKB Biotechnology, Inc.) equilibrated in 25 mM KH_2PO_4 (pH7.0). The column was calibrated using protein standards (BioRAD, Hercules, Calif.), which included blue dextran, thyroglobin (M_r, 670,000), bovine gamma globulin (Mr_r, 158,000), chicken ovalbumin (M_r, 44,000), equine myoglobin (M_r, 17,000), vitamin B-12 (M_r, 1,350).

[8] = target: C16:0-ACP (palmitoyl-acyl carrier protein) made from bought ACP (Escherichia coli (strain K12)) (UniProt P0A6A8); remark: listed apart in the source
Target sequence in this assay (P0A6A8 2-78 limits assumed): as above

[9] = target: C10:0-ACP (decanoic acid acyl-acyl carrier protein) made from bought ACP (Escherichia coli (strain K12)) (UniProt P0A6A8); remark: listed apart in the source

“soybean β-Ketoacyl-Acyl Carrier Protein Synthase II purified from soybean seed (enzyme)” showed a Km [1] of 18 µM.

For palmitoyl-ACP [C16:0-ACP], the Km [2] was 18 µM and the Km [3] was 14.1 µM.

C/C=C/C/C=C/CCC(=O)[C@H]1O[C@H]1C(N)=O [cerulenin] was tested, and the “inhibition of KAS I activity” value (KAS I) was “completely inhibits” and the “inhibition of KAS II” value [4] was “about 50%”.

B1: first soybean KAS II expressed in E. coli from pDAB393 (enzyme)
chain: MAVALQPTQEVTTIKKPPTKQRRVVVTGLGVVTPLGHEPDIFYNNLLDGVSGISEIETFDCAEYPTRIAGEIKSFSTDGWVAPKLSKRMDKFMLYMLTAGKKALVDGGITDDVMDELNKDKCGVLIGSAMGGMKVFNDAIEALRISYKKMNPFCVPFATTNMGSAMLAMDLGWMGPNYSISTACATSNFCILNAANHIIRGEADVMLCGGSDAAIIPIGLGGFVACRALSQRNTDPTKASRPWDINRDGFVMGEGAGVLLLEELEHAKKRGATIYAEFLGGSFTCDAYHVTEPRPDGAGVILCIEKALAQSGVSKEDVNYINAHATSTPAGDLKEYQALMHCFGQNPKLRVNSTKSMIGHLLGAAGAVEAVATIQAIRTGWVHPNINLEKPDNGVDAKVLVGSKKERLDVKAALSNSFGFGGHNSSIIFAPYK
In the case of B1, the synthase activity: condensation of [2-14C]malonyl-CoA with C16:0-ACP to C18:0-ACP (counts per minute per minute) [5] is reported as 1930, the synthase activity: condensation of [2-14C]malonyl-CoA with C10:0-ACP to C12:0-ACP (counts per minute per minute) [6] is reported as 207 and the binding result [7] is reported as “binds”.

B2: second soybean KAS II expressed in E. coli from pDAB394 (enzyme)
chain: MAVALQPTQEITTIKKPPTKQRRVVVTGLGVVTPLGHEPDIFYNNLLDGASGISEIETFDCAEYPTRIAGEIKSFSTDGWVAPKLSKRMDKFMLYMLTAGKKALVDGGITDDVMDELNKEKCGVLIGSAMGGMKVFNDAIEALRISYKKMKPFCVPFATTNMGSAMLAMDLGWMGPNYSISTACATSNFCILNAANHIIRGEADVMLCGGSDAAIIPIGLGGFVACRALSQRNTDPTKASRPWDINRDGFVMGEGAGVLLLEELEHAKERGATIYAEFLGGSFTCDAYHVTEPRPDGAGVILCIEKALAQSGVSKEDVNYINAHATSTPAGDLKEYQALMHCFGQNPELRVNSTKSMIGHLLGAAGGVAAVATIQAIRTGWVHPNINLENPDNGVDAKVLVGSKKERLDVKAALSNSFGFGGHNSSIIFAPY
B2 showed a synthase activity: condensation of [2-14C]malonyl-CoA with C16:0-ACP to C18:0-ACP (counts per minute per minute) [8] of 2160 and a synthase activity: condensation of [2-14C]malonyl-CoA with C10:0-ACP to C12:0-ACP (counts per minute per minute) [9] of 890.

B3: maize β-Ketoacyl-Acyl Carrier Protein Synthase II purified from maize seed (enzyme)
chain: MAVALQAERSVIEKKKPDIKQRRVVVTGMGVVTPLGHDPDVFYNNLLDGVSGISEIERFDCSNFPTRIAGEIKSFSTDGWVAPKLAKRMDKFMLYLITAGKKALENGGLTEELRNELDKTRCGVLIGSAMGGMKVFNDAIEALRVSYKKMNPFCVPFATTNMGSAILAMDLGWMGPNYSISTACATSNFCILNAANHIRRGEADVMLCGGSDAPLIPIGLGGFVACRALSQRNSDPTKASRPWDMGRDGFVMGEGAGVLVLEELEHAKERGATIYAEFLGGSFTCDAYHMTEPHPEGRGIALCIEKALADAGVAREEINYVNAHATSTQAGDLKEYEAIVRCFRQNPQLRVNSTKSMTGHLIGAAGGIEAVASIQAIRTGWVHPNLNLENPEDTVDVGVLVGSQKERCEVKVALSNSFGFGGHNSSILFAPFK
Molecule B3 has a Km [1] of 14.1 µM.

B4: maize KAS II expressed in E. coli from pDAB388 (enzyme)
chain: MAVALQAERSVIEKKKPDIKQRRVVVTGMGVVTPLGHDPDVFYNNLLDGVSGISEIERFDCSNFPTRIAGEIKSFSTDGWVAPKLAKRMDKFMLYLITAGKKALENGGLTEELRNELDKTRCGVLIGSAMGGMKVFNDAIEALRVSYKKMNPFCVPFATTNMGSAILAMDLGWMGPNYSISTACATSNFCILNAANHIRRGEADVMLCGGSDAPLIPIGLGGFVACRALSQRNSDPTKASRPWDMGRDGFVMGEGAGVLVLEELEHAKERGATIYAEFLGGSFTCDAYHMTEPHPEGRGIALCIEKALADAGVAREEINYVNAHATSTQAGDLKEYEAIVRCFRQNPQLRVNSTKSMTGHLIGAAGGIEAVASIQAIRTGWVHPNLNLENPEDTVDVGVLVGSQKERCEVKVALSNSFGFGGHNSSILFAPFK
In the case of B4, the synthase activity: condensation of [2-14C]malonyl-CoA with C16:0-ACP to C18:0-ACP (counts per minute per minute) [8] is reported as 909 and the synthase activity: condensation of [2-14C]malonyl-CoA with C10:0-ACP to C12:0-ACP (counts per minute per minute) [9] is reported as 734.
